One block for each molecule: values may come before it. Ends that are not written are not given here. * marks the point of attachment. Crotonyl(E) = C/C=C/C(=O)*
What was measured:
[1] = target: Histone H4K5ac/K8ac peptide (Homo sapiens) (UniProt P62805); conditions: cited from earlier work
[2] = target: Histone H4K5cr/K8cr peptide (Homo sapiens) (UniProt P62805); conditions: cited from earlier work
[3] = target: Histone H3K4cr peptide (Homo sapiens) (UniProt P68431); assay: ITC; conditions: cited from earlier work
[4] = target: T1, AF9 YEATS domain (Homo sapiens, UniProt P42568); assay: 2D 1H-15N HSQC NMR binding to AF9 YEATS domain; conditions: 30°C, H3 peptide added to AF9 YEATS domain
T1 sequence (P42568 1-138): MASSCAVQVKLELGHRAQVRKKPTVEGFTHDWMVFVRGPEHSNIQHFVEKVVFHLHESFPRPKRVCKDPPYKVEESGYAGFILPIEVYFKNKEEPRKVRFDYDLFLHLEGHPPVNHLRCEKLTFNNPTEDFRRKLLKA

[5] = target: T2, AF9 YEATS domain (residues 1–138) (human, UniProt P42568 1-138); assay: ITC
T2 sequence (looked up): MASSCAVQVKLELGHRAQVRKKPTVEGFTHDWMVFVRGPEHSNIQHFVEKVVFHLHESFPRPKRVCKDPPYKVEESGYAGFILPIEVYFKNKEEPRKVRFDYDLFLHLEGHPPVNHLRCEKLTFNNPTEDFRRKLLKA

Chain of Sirt3 (Q9NTG7 2-399): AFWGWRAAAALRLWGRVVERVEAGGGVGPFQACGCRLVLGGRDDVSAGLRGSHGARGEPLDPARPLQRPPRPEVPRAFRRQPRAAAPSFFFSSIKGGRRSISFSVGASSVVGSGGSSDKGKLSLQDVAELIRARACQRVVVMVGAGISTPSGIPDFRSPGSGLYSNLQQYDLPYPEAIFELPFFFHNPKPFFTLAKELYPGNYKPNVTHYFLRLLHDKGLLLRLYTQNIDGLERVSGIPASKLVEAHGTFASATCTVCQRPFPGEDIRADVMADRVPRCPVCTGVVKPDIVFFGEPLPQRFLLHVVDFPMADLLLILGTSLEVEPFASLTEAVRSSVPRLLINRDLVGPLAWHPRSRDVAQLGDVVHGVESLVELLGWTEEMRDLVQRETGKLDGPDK

Molecule: TAF1 BD2 (from UniProt P21675)
Kd [1]: 50 µM | Kd [2]: 100 µM

Molecule: Sirt3 (from UniProt Q9NTG7)
Kd [3]: 25 µM

Molecule: TKQTAR-K-SSGGKA [unmodified H3 peptide]
changes of protein backbone amide resonances / binding [4]: did not cause any protein resonance changes

binding result [5]: binds
Molecule: ATKAARK(Crotonyl(E))SAPATG [histone H3K27cr peptide (residues 21–33)]

binding result [5]: binds
Molecule: ATKAARK(Ac)SAPATG [histone H3K27ac peptide (residues 21–33)]
